Results from the Immune Epitope Database (IEDB).

Columns and labels:
HLA-B*18:01 [1] = assay: IEDB peptide-MHC binding, purified MHC/direct/fluorescence; filed as Kd, often an IC50 or EC50 that approximates it; ≥ and ≤ were set here for values at or beyond the usual limits of such assays
HLA-A*31:01 = assay: as above
HLA-A*11:01 = assay: as above
HLA-B*40:01 = assay: as above
HLA-B*57:01 = assay: as above
HLA-C*05:01 = assay: as above; settings: source organism: Influenza A virus (A/Fort Monmouth/1/1947-mouse adapted(H1N1))
HLA-A*69:01 [2] = assay: as above; settings: source organism: Influenza A virus (A/whooper swan/Mongolia/6/05(H5N1))
HLA-B*48:01 = assay: as above
HLA-B*58:01 = assay: as above
HLA-A*80:01 = assay: as above; settings: source organism: Influenza A virus (A/whooper swan/Mongolia/6/05(H5N1))
HLA-B*46:01 = assay: as above
HLA-A*26:01 = assay: as above; settings: source organism: Influenza A virus(A/swine/Shandong/fZC/2003(H9N2))
HLA-A*03:01 = assay: as above; settings: source organism: Influenza A virus (A/whooper swan/Mongolia/6/05(H5N1))
HLA-B*27:05 = assay: as above
HLA-A*01:01 = assay: as above
HLA-B*15:17 = assay: as above
HLA-B*15:01 = assay: as above
HLA-A*02:03 = assay: IEDB peptide-MHC binding, purified MHC/competitive/fluorescence; filed as Kd, often an IC50 or EC50 that approximates it; ≥ and ≤ were set here for values at or beyond the usual limits of such assays; settings: source organism: Influenza A virus (A/Fort Monmouth/1/1947-mouse adapted(H1N1))
HLA-B*53:01 = assay: IEDB peptide-MHC binding, purified MHC/competitive/fluorescence; ≥ and ≤ were set here for values at or beyond the usual limits of such assays; settings: source organism: human gammaherpesvirus 4
HLA-B*18:01 [3] = assay: IEDB peptide-MHC binding, purified MHC/competitive/fluorescence; filed as Kd, often an IC50 or EC50 that approximates it; ≥ and ≤ were set here for values at or beyond the usual limits of such assays; settings: source organism: Human herpesvirus 4 strain B95-8
HLA-A*02:01 = assay: IEDB peptide-MHC binding, purified MHC/direct/fluorescence; filed as Kd, often an IC50 or EC50 that approximates it; ≥ and ≤ were set here for values at or beyond the usual limits of such assays; settings: source organism: Mycobacterium tuberculosis
HLA-B*07:02 = assay: as above; settings: source organism: Mycobacterium tuberculosis
HLA-A*69:01 [4] = assay: IEDB peptide-MHC binding, purified MHC/competitive/fluorescence; filed as Kd, often an IC50 or EC50 that approximates it; ≥ and ≤ were set here for values at or beyond the usual limits of such assays; settings: source organism: Mycobacterium tuberculosis variant bovis BCG str. Pasteur 1173P2
HLA-A*68:02 = assay: as above; settings: source organism: Mycobacterium tuberculosis variant bovis BCG str. Pasteur 1173P2
HLA-A*26:02 = assay: as above; settings: source organism: Mycobacterium tuberculosis variant bovis BCG str. Pasteur 1173P2
HLA-A*26:03 = assay: as above; settings: source organism: Mycobacterium tuberculosis variant bovis BCG str. Pasteur 1173P2
[5] = source organism: Influenza A virus (A/whooper swan/Mongolia/6/05(H5N1))
[6] = source organism: Mycobacterium tuberculosis

Work on SSDDFALIV yielded a Kd (HLA-B*18:01 [1]; [5]) of at least 20 µM, a Kd (HLA-A*31:01; [5]) of at least 20 µM and a Kd (HLA-A*11:01; [5]) of at least 20 µM. The Kd (HLA-B*40:01; [5]) was at least 20 µM, the Kd (HLA-B*57:01; [5]) was at least 20 µM and the Kd (HLA-C*05:01) was 0.016 µM. For the same sequence, the Kd (HLA-A*69:01 [2]) was 0.0188 µM, the Kd (HLA-B*48:01; [5]) was at least 20 µM and the Kd (HLA-B*58:01; [5]) was at least 20 µM. The Kd (HLA-A*80:01) was 0.224 µM, the Kd (HLA-B*46:01; [5]) was at least 20 µM and the Kd (HLA-A*26:01) was at least 20 µM. For the same sequence, the Kd (HLA-A*03:01) was at least 20 µM, the Kd (HLA-B*27:05; [5]) was at least 20 µM and the Kd (HLA-A*01:01; [5]) was 0.113 µM. For the same sequence, the Kd (HLA-B*15:17; [5]) was 0.229 µM, the Kd (HLA-B*15:01; [5]) was at least 20 µM and the Kd (HLA-A*02:03) was at least 20 µM.
LASAMRMLW showed an IC50 (HLA-B*53:01) of 0.0783 µM and a Kd (HLA-B*18:01 [3]) of 2.27 µM.
For QVFKGVVIR, the Kd (HLA-B*18:01 [1]; [6]) was at least 20 µM, the Kd (HLA-A*31:01; [6]) was 0.101 µM and the Kd (HLA-A*11:01; [6]) was 0.694 µM. It also gave a Kd (HLA-B*40:01; [6]) of at least 20 µM, a Kd (HLA-B*57:01; [6]) of at least 20 µM and a Kd (HLA-A*02:01) of at least 20 µM. It also gave a Kd (HLA-B*48:01; [6]) of at least 20 µM, a Kd (HLA-B*58:01; source organism: Mycobacterium tuberculosis str. Haarlem) of at least 20 µM and a Kd (HLA-B*07:02) of at least 20 µM. The Kd (HLA-B*46:01; [6]) was at least 20 µM, the Kd (HLA-B*27:05; [6]) was at least 20 µM and the Kd (HLA-A*01:01; [6]) was at least 20 µM. The Kd (HLA-B*15:17; [6]) was at least 20 µM, the Kd (HLA-B*15:01; [6]) was at least 20 µM and the Kd (HLA-A*69:01 [4]) was at least 20 µM. The Kd (HLA-A*68:02) was 1.77 µM, the Kd (HLA-A*26:02) was at least 20 µM and the Kd (HLA-A*26:03) was at least 20 µM.
